# Results: the supplement of paper PMC10065799, “High-throughput profiling of sequence recognition by tyrosine kinases and SH2 domains using bacterial peptide display” (eLife, 2023)
# Legend:
# MERTK = MERTK (UniProt Q12866); test: phosphorylation enrichment, bacterial display (enrichment ratio); higher = better substrate or ligand; peptides without Tyr show the background
# c-Abl (mouse) = test: as above
# Hck = Hck (UniProt P08631); test: as above
# Fes = Fes (UniProt P07332); test: as above
# EPHB2 = EPHB2 (UniProt P29323); test: as above
# EPHB1 = EPHB1 (UniProt P54762); test: as above
# AncSZ = test: as above
# FGFR3 = FGFR3 (UniProt P22607); test: as above
# FGFR1 = FGFR1 (UniProt P11362); test: as above
# Fer (mouse) = test: as above
# c-Src = test: as above
# Jak2 = Jak2 (UniProt O60674); test: as above
# Fyn = Fyn (UniProt P06241); test: as above
# SHP2-C SH2 = test: SH2 binding enrichment of the phosphorylated peptide, bacterial display (enrichment ratio); higher = better substrate or ligand; peptides without Tyr show the background
# Grb2 SH2 = Grb2 SH2 (UniProt P62993); test: as above
# c-Src SH2 = test: as above
# 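For SH2 binding enrichment of the phosphorylated peptide, bacterial display in this document: peptide library displayed on the E. coli surface as eCPX fusions, selected cells deep-sequenced, score is each peptide's frequency after selection divided by its frequency in the input.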
# 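For phosphorylation enrichment, bacterial display in this document: 11-residue human phosphosite peptides and single-mutation variants displayed on the E. coli surface, counted by deep sequencing, each peptide's frequency after selection divided by its frequency in the unselected input library; frequency after pTyr selection over input frequency; kinase dosed for 20-30% of maximal phosphorylation in three min.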
# Chain of MERTK (Q12866 whole entry, looked up): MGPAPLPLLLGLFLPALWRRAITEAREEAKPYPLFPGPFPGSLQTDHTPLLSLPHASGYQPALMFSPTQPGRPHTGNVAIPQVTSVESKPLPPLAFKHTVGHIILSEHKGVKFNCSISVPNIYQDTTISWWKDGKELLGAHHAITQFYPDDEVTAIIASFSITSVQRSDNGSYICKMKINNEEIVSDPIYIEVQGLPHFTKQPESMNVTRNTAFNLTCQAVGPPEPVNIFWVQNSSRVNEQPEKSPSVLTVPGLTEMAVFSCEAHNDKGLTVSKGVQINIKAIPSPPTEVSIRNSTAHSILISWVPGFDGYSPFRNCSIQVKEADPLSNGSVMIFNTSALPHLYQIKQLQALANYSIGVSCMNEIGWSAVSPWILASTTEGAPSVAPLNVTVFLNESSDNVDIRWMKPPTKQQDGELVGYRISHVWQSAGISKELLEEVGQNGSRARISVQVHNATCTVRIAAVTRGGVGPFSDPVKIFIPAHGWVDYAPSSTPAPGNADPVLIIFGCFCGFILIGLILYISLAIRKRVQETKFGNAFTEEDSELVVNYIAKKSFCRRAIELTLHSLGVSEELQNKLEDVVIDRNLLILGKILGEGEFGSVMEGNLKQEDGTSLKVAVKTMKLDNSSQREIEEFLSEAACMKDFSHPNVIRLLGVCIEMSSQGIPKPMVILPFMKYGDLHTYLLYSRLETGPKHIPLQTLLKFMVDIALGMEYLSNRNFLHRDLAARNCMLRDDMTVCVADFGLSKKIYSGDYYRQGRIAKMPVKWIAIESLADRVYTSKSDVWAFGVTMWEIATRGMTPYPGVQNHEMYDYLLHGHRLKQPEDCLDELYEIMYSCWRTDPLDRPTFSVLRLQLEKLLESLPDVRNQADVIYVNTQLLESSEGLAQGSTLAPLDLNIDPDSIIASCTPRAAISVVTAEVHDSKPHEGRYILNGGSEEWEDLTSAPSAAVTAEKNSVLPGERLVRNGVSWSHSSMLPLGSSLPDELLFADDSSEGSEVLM
# Chain of Fyn (P06241 whole entry, looked up): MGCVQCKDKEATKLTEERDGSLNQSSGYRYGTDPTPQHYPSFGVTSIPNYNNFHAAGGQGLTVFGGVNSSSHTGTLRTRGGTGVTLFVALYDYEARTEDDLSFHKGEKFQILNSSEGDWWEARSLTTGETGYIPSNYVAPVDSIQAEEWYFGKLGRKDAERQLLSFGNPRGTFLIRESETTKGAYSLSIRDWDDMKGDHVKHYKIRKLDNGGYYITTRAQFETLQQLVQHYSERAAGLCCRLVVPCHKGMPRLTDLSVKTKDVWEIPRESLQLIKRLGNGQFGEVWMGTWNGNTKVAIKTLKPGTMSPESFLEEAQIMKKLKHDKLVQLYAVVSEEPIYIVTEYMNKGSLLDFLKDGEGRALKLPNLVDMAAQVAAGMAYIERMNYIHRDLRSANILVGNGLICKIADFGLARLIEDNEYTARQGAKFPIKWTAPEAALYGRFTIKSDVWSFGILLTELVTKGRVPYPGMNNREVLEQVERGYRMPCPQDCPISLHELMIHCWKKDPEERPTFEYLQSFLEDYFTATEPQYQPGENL
# Chain of Fes (P07332 whole entry, looked up): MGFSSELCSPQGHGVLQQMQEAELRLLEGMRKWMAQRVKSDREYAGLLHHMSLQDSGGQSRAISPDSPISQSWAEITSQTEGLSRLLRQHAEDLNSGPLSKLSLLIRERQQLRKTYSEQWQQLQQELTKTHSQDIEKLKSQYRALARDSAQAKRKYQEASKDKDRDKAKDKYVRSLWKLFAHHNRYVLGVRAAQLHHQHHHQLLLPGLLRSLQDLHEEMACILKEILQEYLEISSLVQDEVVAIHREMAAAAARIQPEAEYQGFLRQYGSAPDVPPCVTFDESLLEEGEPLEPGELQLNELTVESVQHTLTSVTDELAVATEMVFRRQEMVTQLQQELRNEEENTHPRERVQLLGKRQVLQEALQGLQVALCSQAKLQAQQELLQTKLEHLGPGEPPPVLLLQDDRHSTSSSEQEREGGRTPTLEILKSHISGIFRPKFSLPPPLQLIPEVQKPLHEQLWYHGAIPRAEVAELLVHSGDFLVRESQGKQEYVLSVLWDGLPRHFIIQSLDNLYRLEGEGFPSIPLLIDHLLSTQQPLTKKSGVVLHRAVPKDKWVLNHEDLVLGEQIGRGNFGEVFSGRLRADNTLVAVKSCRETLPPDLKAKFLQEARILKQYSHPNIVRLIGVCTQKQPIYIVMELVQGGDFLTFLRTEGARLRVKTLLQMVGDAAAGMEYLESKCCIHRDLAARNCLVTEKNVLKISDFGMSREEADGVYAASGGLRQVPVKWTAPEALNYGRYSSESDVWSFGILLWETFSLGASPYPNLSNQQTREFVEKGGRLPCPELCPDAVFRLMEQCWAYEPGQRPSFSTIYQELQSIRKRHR
# Chain of FGFR1 (P11362 whole entry, looked up): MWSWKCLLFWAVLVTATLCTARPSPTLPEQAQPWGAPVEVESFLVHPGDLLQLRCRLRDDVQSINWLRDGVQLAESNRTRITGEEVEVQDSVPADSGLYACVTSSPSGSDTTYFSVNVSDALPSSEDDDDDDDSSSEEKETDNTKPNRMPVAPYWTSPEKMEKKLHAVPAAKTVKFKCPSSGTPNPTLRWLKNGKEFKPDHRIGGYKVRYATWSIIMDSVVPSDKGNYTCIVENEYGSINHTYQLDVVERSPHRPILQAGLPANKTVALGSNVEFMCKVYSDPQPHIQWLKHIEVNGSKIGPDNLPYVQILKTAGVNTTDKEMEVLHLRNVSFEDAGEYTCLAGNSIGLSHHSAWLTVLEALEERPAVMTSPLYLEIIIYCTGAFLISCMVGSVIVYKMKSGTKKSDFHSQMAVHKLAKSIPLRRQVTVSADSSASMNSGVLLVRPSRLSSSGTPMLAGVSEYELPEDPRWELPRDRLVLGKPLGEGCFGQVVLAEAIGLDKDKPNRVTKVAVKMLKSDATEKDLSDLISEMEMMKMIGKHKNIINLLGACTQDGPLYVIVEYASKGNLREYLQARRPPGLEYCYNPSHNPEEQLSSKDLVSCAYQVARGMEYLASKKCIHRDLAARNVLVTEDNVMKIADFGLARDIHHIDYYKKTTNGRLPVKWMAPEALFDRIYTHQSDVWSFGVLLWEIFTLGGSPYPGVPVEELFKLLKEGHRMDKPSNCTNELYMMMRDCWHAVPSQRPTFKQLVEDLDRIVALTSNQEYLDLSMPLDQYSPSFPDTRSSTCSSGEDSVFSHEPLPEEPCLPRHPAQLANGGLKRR
# Chain of FGFR3 (P22607 whole entry, looked up): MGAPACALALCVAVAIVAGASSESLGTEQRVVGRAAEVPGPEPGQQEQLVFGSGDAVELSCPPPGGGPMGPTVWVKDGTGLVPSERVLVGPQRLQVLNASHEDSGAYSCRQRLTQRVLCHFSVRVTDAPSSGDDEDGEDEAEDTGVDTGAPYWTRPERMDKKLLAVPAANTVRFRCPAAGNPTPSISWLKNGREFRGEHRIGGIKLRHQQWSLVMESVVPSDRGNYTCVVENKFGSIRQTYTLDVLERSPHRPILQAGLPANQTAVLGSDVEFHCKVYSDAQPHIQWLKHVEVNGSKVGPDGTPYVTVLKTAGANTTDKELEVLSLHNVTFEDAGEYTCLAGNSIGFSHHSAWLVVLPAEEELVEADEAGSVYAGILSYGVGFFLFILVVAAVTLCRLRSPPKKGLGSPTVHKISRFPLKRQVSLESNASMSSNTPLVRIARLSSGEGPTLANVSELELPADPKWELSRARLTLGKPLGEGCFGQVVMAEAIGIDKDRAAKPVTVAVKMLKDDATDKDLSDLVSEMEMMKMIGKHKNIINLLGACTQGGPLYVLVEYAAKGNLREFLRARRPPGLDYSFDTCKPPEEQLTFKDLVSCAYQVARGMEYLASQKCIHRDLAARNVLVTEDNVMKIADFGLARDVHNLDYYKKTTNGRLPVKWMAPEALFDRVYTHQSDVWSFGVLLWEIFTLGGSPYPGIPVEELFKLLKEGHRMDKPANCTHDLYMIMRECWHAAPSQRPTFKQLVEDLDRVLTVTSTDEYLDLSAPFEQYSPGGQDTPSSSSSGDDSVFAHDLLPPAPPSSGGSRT
# Chain of Grb2 SH2 (P62993 whole entry, looked up): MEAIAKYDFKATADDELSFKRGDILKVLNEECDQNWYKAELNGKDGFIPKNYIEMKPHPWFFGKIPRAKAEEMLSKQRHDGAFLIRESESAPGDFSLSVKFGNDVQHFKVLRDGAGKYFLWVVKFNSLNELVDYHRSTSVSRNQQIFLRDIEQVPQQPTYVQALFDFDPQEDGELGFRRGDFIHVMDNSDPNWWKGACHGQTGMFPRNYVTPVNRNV
# Chain of Hck (P08631 whole entry, looked up): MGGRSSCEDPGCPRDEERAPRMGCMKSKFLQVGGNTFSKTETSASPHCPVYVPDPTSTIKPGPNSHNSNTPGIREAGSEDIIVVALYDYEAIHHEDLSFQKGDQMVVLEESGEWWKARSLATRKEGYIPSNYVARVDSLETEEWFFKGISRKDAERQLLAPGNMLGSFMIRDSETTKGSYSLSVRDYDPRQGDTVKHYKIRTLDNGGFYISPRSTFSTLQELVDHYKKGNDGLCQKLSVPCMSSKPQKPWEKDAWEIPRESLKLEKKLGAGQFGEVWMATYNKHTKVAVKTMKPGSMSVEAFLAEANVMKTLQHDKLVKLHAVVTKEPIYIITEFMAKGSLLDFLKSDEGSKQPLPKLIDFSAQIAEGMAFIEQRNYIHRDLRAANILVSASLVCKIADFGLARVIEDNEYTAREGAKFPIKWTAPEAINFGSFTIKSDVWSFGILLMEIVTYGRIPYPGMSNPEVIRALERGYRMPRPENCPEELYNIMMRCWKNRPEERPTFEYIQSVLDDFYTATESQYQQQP
sequence,measurement,setting,value
SGIYQYSIAKF [FOXL2_Y83_I84S],phosphorylation enrichment,MERTK,9.44
same,phosphorylation enrichment,c-Abl (mouse),7.69
same,phosphorylation enrichment,Hck,5.59
same,phosphorylation enrichment,Fes,1.18
same,phosphorylation enrichment,EPHB2,2.75
same,phosphorylation enrichment,EPHB1,4.84
same,phosphorylation enrichment,AncSZ,1.83
same,phosphorylation enrichment,FGFR3,1.46
same,phosphorylation enrichment,FGFR1,1.71
same,phosphorylation enrichment,Fer (mouse),13.4
same,phosphorylation enrichment,c-Src,4.12
same,phosphorylation enrichment,Jak2,1.04
same,phosphorylation enrichment,Fyn,4.54
same,SH2 binding enrichment,SHP2-C SH2,11.8
same,SH2 binding enrichment,Grb2 SH2,0.994
same,SH2 binding enrichment,c-Src SH2,2.06
KKHIPYKEHKS [CSNK1G1_Y205_R206K],phosphorylation enrichment,MERTK,0.987
same,phosphorylation enrichment,c-Abl (mouse),3.19
same,phosphorylation enrichment,Hck,0.842
same,phosphorylation enrichment,Fes,2.1
same,phosphorylation enrichment,EPHB2,0.951
same,phosphorylation enrichment,EPHB1,1.15
same,phosphorylation enrichment,AncSZ,1.53
same,phosphorylation enrichment,FGFR3,2.2
same,phosphorylation enrichment,FGFR1,0.942
same,phosphorylation enrichment,Fer (mouse),1.2
same,phosphorylation enrichment,c-Src,1.03
same,phosphorylation enrichment,Jak2,3.96
same,phosphorylation enrichment,Fyn,0.597
same,SH2 binding enrichment,SHP2-C SH2,2.23
same,SH2 binding enrichment,Grb2 SH2,1.89
same,SH2 binding enrichment,c-Src SH2,1.82
ILTLKYPIELG [ACTA1_Y71_H75L],phosphorylation enrichment,MERTK,0.352
same,phosphorylation enrichment,c-Abl (mouse),0.476
same,phosphorylation enrichment,Hck,0.518
same,phosphorylation enrichment,Fes,0.986
same,phosphorylation enrichment,EPHB2,0.572
same,phosphorylation enrichment,EPHB1,0.578
same,phosphorylation enrichment,AncSZ,0.886
same,phosphorylation enrichment,FGFR3,0.601
same,phosphorylation enrichment,FGFR1,0.47
same,phosphorylation enrichment,Fer (mouse),0.457
same,phosphorylation enrichment,c-Src,0.352
same,phosphorylation enrichment,Jak2,0.74
same,phosphorylation enrichment,Fyn,0.435
same,SH2 binding enrichment,SHP2-C SH2,0.94
same,SH2 binding enrichment,Grb2 SH2,1.14
same,SH2 binding enrichment,c-Src SH2,0.731
IGNGFYFRVFS [MYBPC3_Y1136_YF],phosphorylation enrichment,MERTK,0.374
same,phosphorylation enrichment,c-Abl (mouse),0.818
same,phosphorylation enrichment,Hck,0.45
same,phosphorylation enrichment,Fes,1.38
same,phosphorylation enrichment,EPHB2,0.568
same,phosphorylation enrichment,EPHB1,0.64
same,phosphorylation enrichment,AncSZ,1.05
same,phosphorylation enrichment,FGFR3,0.756
same,phosphorylation enrichment,FGFR1,0.438
same,phosphorylation enrichment,Fer (mouse),0.519
same,phosphorylation enrichment,c-Src,0.361
same,phosphorylation enrichment,Jak2,1.43
same,phosphorylation enrichment,Fyn,0.365
same,SH2 binding enrichment,SHP2-C SH2,1.06
same,SH2 binding enrichment,Grb2 SH2,0.964
same,SH2 binding enrichment,c-Src SH2,0.466
LSGFGYRLSDQ [PDCD6_Y124],phosphorylation enrichment,MERTK,0.474
same,phosphorylation enrichment,c-Abl (mouse),0.787
same,phosphorylation enrichment,Hck,0.444
same,phosphorylation enrichment,Fes,0.977
same,phosphorylation enrichment,EPHB2,0.502
same,phosphorylation enrichment,EPHB1,0.64
same,phosphorylation enrichment,AncSZ,1.02
same,phosphorylation enrichment,FGFR3,0.76
same,phosphorylation enrichment,FGFR1,0.787
same,phosphorylation enrichment,Fer (mouse),0.449
same,phosphorylation enrichment,c-Src,0.558
same,phosphorylation enrichment,Jak2,1.09
same,phosphorylation enrichment,Fyn,0.731
same,SH2 binding enrichment,SHP2-C SH2,1.65
same,SH2 binding enrichment,Grb2 SH2,0.869
same,SH2 binding enrichment,c-Src SH2,0.545
VEKGSYSALLA [ABCC2_Y845],phosphorylation enrichment,MERTK,0.71
same,phosphorylation enrichment,c-Abl (mouse),0.516
same,phosphorylation enrichment,Hck,0.537
same,phosphorylation enrichment,Fes,0.535
same,phosphorylation enrichment,EPHB2,0.392
same,phosphorylation enrichment,EPHB1,0.354
same,phosphorylation enrichment,AncSZ,0.648
same,phosphorylation enrichment,FGFR3,0.456
same,phosphorylation enrichment,FGFR1,0.401
same,phosphorylation enrichment,Fer (mouse),0.45
same,phosphorylation enrichment,c-Src,0.493
same,phosphorylation enrichment,Jak2,0.69
same,phosphorylation enrichment,Fyn,0.332
same,SH2 binding enrichment,SHP2-C SH2,0.686
same,SH2 binding enrichment,Grb2 SH2,0.663
same,SH2 binding enrichment,c-Src SH2,1.45
LVKDGYQMAQP [CSF1R_Y873],phosphorylation enrichment,MERTK,0.32
same,phosphorylation enrichment,c-Abl (mouse),0.691
same,phosphorylation enrichment,Hck,0.499
same,phosphorylation enrichment,Fes,0.723
same,phosphorylation enrichment,EPHB2,0.392
same,phosphorylation enrichment,EPHB1,0.39
same,phosphorylation enrichment,AncSZ,0.609
same,phosphorylation enrichment,FGFR3,0.527
same,phosphorylation enrichment,FGFR1,0.45
same,phosphorylation enrichment,Fer (mouse),0.462
same,phosphorylation enrichment,c-Src,0.396
same,phosphorylation enrichment,Jak2,0.512
same,phosphorylation enrichment,Fyn,0.357
same,SH2 binding enrichment,SHP2-C SH2,1.01
same,SH2 binding enrichment,Grb2 SH2,0.874
same,SH2 binding enrichment,c-Src SH2,0.634
TGDRPYVCPFD [YY1_Y383],phosphorylation enrichment,MERTK,0.481
same,phosphorylation enrichment,c-Abl (mouse),0.706
same,phosphorylation enrichment,Hck,0.464
same,phosphorylation enrichment,Fes,0.932
same,phosphorylation enrichment,EPHB2,0.46
same,phosphorylation enrichment,EPHB1,0.474
same,phosphorylation enrichment,AncSZ,1.04
same,phosphorylation enrichment,FGFR3,0.635
same,phosphorylation enrichment,FGFR1,0.59
same,phosphorylation enrichment,Fer (mouse),0.431
same,phosphorylation enrichment,c-Src,0.456
same,phosphorylation enrichment,Jak2,0.653
same,phosphorylation enrichment,Fyn,0.509
same,SH2 binding enrichment,SHP2-C SH2,0.712
same,SH2 binding enrichment,Grb2 SH2,0.911
same,SH2 binding enrichment,c-Src SH2,1.6
HNELFYEAAEH [VANGL1_Y345_E347A_YF],phosphorylation enrichment,MERTK,1.46
same,phosphorylation enrichment,c-Abl (mouse),1.47
same,phosphorylation enrichment,Hck,1.51
same,phosphorylation enrichment,Fes,1.55
same,phosphorylation enrichment,EPHB2,0.842
same,phosphorylation enrichment,EPHB1,0.586
same,phosphorylation enrichment,AncSZ,1.85
same,phosphorylation enrichment,FGFR3,0.884
same,phosphorylation enrichment,FGFR1,0.826
same,phosphorylation enrichment,Fer (mouse),9.73
same,phosphorylation enrichment,c-Src,1.89
same,phosphorylation enrichment,Jak2,0.944
same,phosphorylation enrichment,Fyn,1.05
same,SH2 binding enrichment,SHP2-C SH2,0.531
same,SH2 binding enrichment,Grb2 SH2,0.901
same,SH2 binding enrichment,c-Src SH2,0.749
REQREYLDQLN [CCDC88B_Y1277],phosphorylation enrichment,MERTK,0.433
same,phosphorylation enrichment,c-Abl (mouse),2.21
same,phosphorylation enrichment,Hck,0.604
same,phosphorylation enrichment,Fes,0.984
same,phosphorylation enrichment,EPHB2,0.663
same,phosphorylation enrichment,EPHB1,0.666
same,phosphorylation enrichment,AncSZ,0.917
same,phosphorylation enrichment,FGFR3,0.66
same,phosphorylation enrichment,FGFR1,0.693
same,phosphorylation enrichment,Fer (mouse),0.532
same,phosphorylation enrichment,c-Src,0.521
same,phosphorylation enrichment,Jak2,0.578
same,phosphorylation enrichment,Fyn,0.624
same,SH2 binding enrichment,SHP2-C SH2,0.47
same,SH2 binding enrichment,Grb2 SH2,0.589
same,SH2 binding enrichment,c-Src SH2,0.425
GMSQAYSSSQR [DES_Y5],phosphorylation enrichment,MERTK,0.337
same,phosphorylation enrichment,c-Abl (mouse),0.475
same,phosphorylation enrichment,Hck,0.325
same,phosphorylation enrichment,Fes,0.685
same,phosphorylation enrichment,EPHB2,0.321
same,phosphorylation enrichment,EPHB1,0.379
same,phosphorylation enrichment,AncSZ,0.466
same,phosphorylation enrichment,FGFR3,0.382
same,phosphorylation enrichment,FGFR1,0.32
same,phosphorylation enrichment,Fer (mouse),0.354
same,phosphorylation enrichment,c-Src,0.37
same,phosphorylation enrichment,Jak2,0.477
same,phosphorylation enrichment,Fyn,0.309
same,SH2 binding enrichment,SHP2-C SH2,0.417
same,SH2 binding enrichment,Grb2 SH2,0.598
same,SH2 binding enrichment,c-Src SH2,0.392
HYGNNYTDVLQ [MACC1_Y803_R804T],phosphorylation enrichment,MERTK,0.935
same,phosphorylation enrichment,c-Abl (mouse),2.17
same,phosphorylation enrichment,Hck,1.12
same,phosphorylation enrichment,Fes,1.76
same,phosphorylation enrichment,EPHB2,1.45
same,phosphorylation enrichment,EPHB1,5.63
same,phosphorylation enrichment,AncSZ,1.59
same,phosphorylation enrichment,FGFR3,1.05
same,phosphorylation enrichment,FGFR1,1.14
same,phosphorylation enrichment,Fer (mouse),2.53
same,phosphorylation enrichment,c-Src,0.816
same,phosphorylation enrichment,Jak2,1.35
same,phosphorylation enrichment,Fyn,0.635
same,SH2 binding enrichment,SHP2-C SH2,3.32
same,SH2 binding enrichment,Grb2 SH2,0.812
same,SH2 binding enrichment,c-Src SH2,2.72
AEDKPYAELWT [MPI_Y46_M51T],phosphorylation enrichment,MERTK,0.994
same,phosphorylation enrichment,c-Abl (mouse),0.772
same,phosphorylation enrichment,Hck,1.13
same,phosphorylation enrichment,Fes,1.25
same,phosphorylation enrichment,EPHB2,0.737
same,phosphorylation enrichment,EPHB1,0.689
same,phosphorylation enrichment,AncSZ,1.17
same,phosphorylation enrichment,FGFR3,1
same,phosphorylation enrichment,FGFR1,1.01
same,phosphorylation enrichment,Fer (mouse),7.1
same,phosphorylation enrichment,c-Src,2.54
same,phosphorylation enrichment,Jak2,0.958
same,phosphorylation enrichment,Fyn,1.3
same,SH2 binding enrichment,SHP2-C SH2,1.11
same,SH2 binding enrichment,Grb2 SH2,0.929
same,SH2 binding enrichment,c-Src SH2,2.62
EFNLMYDGTKE [IRF6_Y97],phosphorylation enrichment,MERTK,0.446
same,phosphorylation enrichment,c-Abl (mouse),0.705
same,phosphorylation enrichment,Hck,0.595
same,phosphorylation enrichment,Fes,1.14
same,phosphorylation enrichment,EPHB2,0.462
same,phosphorylation enrichment,EPHB1,0.447
same,phosphorylation enrichment,AncSZ,0.993
same,phosphorylation enrichment,FGFR3,0.603
same,phosphorylation enrichment,FGFR1,0.498
same,phosphorylation enrichment,Fer (mouse),0.479
same,phosphorylation enrichment,c-Src,0.597
same,phosphorylation enrichment,Jak2,1.03
same,phosphorylation enrichment,Fyn,0.536
same,SH2 binding enrichment,SHP2-C SH2,1.21
same,SH2 binding enrichment,Grb2 SH2,0.883
same,SH2 binding enrichment,c-Src SH2,0.489
VHKKGYNKLNQ [ZNF676_Y98_E96K],phosphorylation enrichment,MERTK,0.384
same,phosphorylation enrichment,c-Abl (mouse),0.645
same,phosphorylation enrichment,Hck,0.43
same,phosphorylation enrichment,Fes,0.66
same,phosphorylation enrichment,EPHB2,0.374
same,phosphorylation enrichment,EPHB1,0.48
same,phosphorylation enrichment,AncSZ,0.408
same,phosphorylation enrichment,FGFR3,0.516
same,phosphorylation enrichment,FGFR1,0.494
same,phosphorylation enrichment,Fer (mouse),0.439
same,phosphorylation enrichment,c-Src,0.488
same,phosphorylation enrichment,Jak2,0.569
same,phosphorylation enrichment,Fyn,0.403
same,SH2 binding enrichment,SHP2-C SH2,0.885
same,SH2 binding enrichment,Grb2 SH2,1.08
same,SH2 binding enrichment,c-Src SH2,0.962
FDEFRYRSFIK [CFTR_Y517_V520F_YF],phosphorylation enrichment,MERTK,0.422
same,phosphorylation enrichment,c-Abl (mouse),0.454
same,phosphorylation enrichment,Hck,0.511
same,phosphorylation enrichment,Fes,0.764
same,phosphorylation enrichment,EPHB2,0.39
same,phosphorylation enrichment,EPHB1,0.417
same,phosphorylation enrichment,AncSZ,0.775
same,phosphorylation enrichment,FGFR3,0.526
same,phosphorylation enrichment,FGFR1,0.498
same,phosphorylation enrichment,Fer (mouse),0.556
same,phosphorylation enrichment,c-Src,0.419
same,phosphorylation enrichment,Jak2,0.497
same,phosphorylation enrichment,Fyn,0.467
same,SH2 binding enrichment,SHP2-C SH2,0.41
same,SH2 binding enrichment,Grb2 SH2,0.702
same,SH2 binding enrichment,c-Src SH2,0.414
LDFNEYFRDLN [HPRT1_Y198_YF],phosphorylation enrichment,MERTK,0.423
same,phosphorylation enrichment,c-Abl (mouse),0.606
same,phosphorylation enrichment,Hck,0.486
same,phosphorylation enrichment,Fes,1.15
same,phosphorylation enrichment,EPHB2,0.461
same,phosphorylation enrichment,EPHB1,0.442
same,phosphorylation enrichment,AncSZ,1.24
same,phosphorylation enrichment,FGFR3,0.697
same,phosphorylation enrichment,FGFR1,0.513
same,phosphorylation enrichment,Fer (mouse),0.382
same,phosphorylation enrichment,c-Src,0.473
same,phosphorylation enrichment,Jak2,0.998
same,phosphorylation enrichment,Fyn,0.465
same,SH2 binding enrichment,SHP2-C SH2,0.604
same,SH2 binding enrichment,Grb2 SH2,1.01
same,SH2 binding enrichment,c-Src SH2,0.552
